One experiment deals with T1, recombinant human IL-17B (human, UniProt Q9UHF5 21-180).
T1 sequence (looked up): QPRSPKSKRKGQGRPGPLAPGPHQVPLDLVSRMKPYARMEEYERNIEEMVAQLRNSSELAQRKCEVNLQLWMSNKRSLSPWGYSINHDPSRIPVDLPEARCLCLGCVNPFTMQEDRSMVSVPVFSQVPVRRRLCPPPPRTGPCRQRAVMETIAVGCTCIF
Description: ELISA, cytokine coated on plate at 1 µg/mL. As to the method:
(§1) Recombinant human IL-17A, IL-17B, IL-17C, IL-17D, IL-17E, IL-17F, IL-1, IL-2, IL-6, IL-8, IL-21, IL-22, IL-23, IFN-g and TNFα (purchased from Sino Biological Inc. or R&D systems) were coated on a 96-well high-absorbing ELISA plate with a carbonate buffer solution with pH 9.6, the coating concentration was 1 μg/mL, the coating amount was 100 μL per well, and the coating was carried ax 4° C. out overnight. The plate was washed five times with PBST and blocked with 300 μL/well of PBST containing 1% BSA and incubated at 25° C. for 1 hour. The plate was washed five times with PBST. […] The plate was washed five times with PBST. Then, horseradish peroxidase-labeled anti-human IgG antibody (Chemicon, Catalog Number AP309P) 1:2000 diluted in PBST containing 1% BSA was added, 100 μL was added to each well, incubated at 25° C. for 1 hour. The plate was washed five times with PBST. 100 μL/well of colorimetric substrate TMB was added and incubated at room temperature for 10 minutes. Color development was terminated by adding 100 μL/well of 1 M H₂SO₄. The absorbance at 450 nm was read on a microplate reader.
(§2) Recombinant human IL-17A, IL-17B, IL-17C, IL-17D, IL-17E, IL-17F, IL-1, IL-2, IL-6, IL-8, IL-21, IL-22, IL-23, IFN-g and TNFα (purchased from Sino Biological Inc. or R&D systems) were coated on a 96-well high-absorbing ELISA plate with a carbonate buffer solution with pH 9.6, the coating concentration was 1 μg/mL, the coating amount was 100 μL per well, and the coating was carried at 4° C. out overnight. Washed five times with PBST. Blocked with 300 μL/well of PBST containing 1% BSA and incubated at 25° C. for 1 hour. Washed five times with PBST.

In a further experiment the target is T2, recombinant human IL-17D (human, UniProt Q8TAD2 16-202, limits assumed).
T2 sequence (looked up): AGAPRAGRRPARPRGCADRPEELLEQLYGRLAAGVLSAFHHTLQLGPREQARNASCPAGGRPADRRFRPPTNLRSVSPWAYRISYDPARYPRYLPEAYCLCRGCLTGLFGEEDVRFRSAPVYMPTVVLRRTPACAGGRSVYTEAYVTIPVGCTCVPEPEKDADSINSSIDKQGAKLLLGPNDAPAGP
The experiment in a line: ELISA, cytokine coated on plate at 1 µg/mL. As to the method: as §1, §2
A general note: In an ELISA, binding on a coated surface is turned into a signal by an enzyme label.

The target in the next experiment is T3, recombinant human IFN-g (human, UniProt P01579 24-166, limits assumed).
T3 sequence (looked up): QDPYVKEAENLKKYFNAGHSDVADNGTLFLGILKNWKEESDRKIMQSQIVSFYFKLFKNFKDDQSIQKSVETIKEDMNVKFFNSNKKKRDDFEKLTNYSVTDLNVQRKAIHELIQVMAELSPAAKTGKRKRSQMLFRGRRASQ
The experiment in a line: ELISA, cytokine coated on plate at 1 µg/mL. On the procedure: as §1, §2

For experiment [1], the target named is T4, recombinant human IL-17A (human, UniProt Q16552 24-155).
T4 construct: also called IL-17A antigen
T4 sequence (Q16552 24-155 limits assumed): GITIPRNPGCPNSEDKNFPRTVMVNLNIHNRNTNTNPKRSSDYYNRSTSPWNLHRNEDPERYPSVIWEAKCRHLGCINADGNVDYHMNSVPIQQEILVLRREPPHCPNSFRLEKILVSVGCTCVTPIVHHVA
The experiment in a line: SPR, Biacore 3000, human IL-17A coupled to CM5 chip, antibody injected. On the procedure:
The instrument utilizes an optical surface plasmon resonance technique to detect association and dissociation between a molecule coupled on a sensor chip and an analyte. CM5 chips (GE Healthcare, BR-1000-12) were used. Brief experiment procedure was as follow: human IL-17A was dissolved in sodium acetate buffer (pH 5.0) and coupled to CM chip by injecting at a speed of 10 μL/min. 1 M ethanolamine was injected at a speed of 10 μL/min for blocking. […] 10 mM glycine solution (pH 2.0) was used for regeneration. Association rate constants and dissociation rate constants were analyzed and calculated by Biacore 3000 control software.
A general note: SPR reads the build-up and loss of mass on a sensor chip optically.

In the next experiment the target is T5, recombinant rat IL-17A (rat, UniProt Q61453 18-150, limits assumed).
T5 sequence (looked up): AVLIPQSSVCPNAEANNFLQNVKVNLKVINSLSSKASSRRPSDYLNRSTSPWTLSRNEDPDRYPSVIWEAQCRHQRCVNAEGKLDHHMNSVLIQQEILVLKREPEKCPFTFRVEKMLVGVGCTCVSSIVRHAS
The experiment in a line: ELISA, recombinant rat IL-17A coated on the plate, HRP anti-human IgG, OD450nm. As to the method:
(§3) Recombinant human IL-17A, monkey IL-17A, rat IL-17A and mouse IL-17A (all purchased from Sino Biological Inc.), were coated on a 96-well high-absorbing ELISA plate with a carbonate buffer solution with pH 9.6, the coating concentration was […], the coating amount was 100 μL per well, and the coating was carried out at 4° C. overnight. The plate was washed five times with PBST and blocked with 300 μL/well of PBST containing 1% BSA, and then incubated at 25° C. for 1 hour. The plate was washed five times with PBST. […] The plate was washed five times with PBST. Then, horseradish peroxidase-labeled anti-human IgG antibody (Chemicon, Catalog Number AP309P) 1:2000 diluted in PBST containing 1% BSA was added, 100 μL per well, incubated at 25° C. for 1 hour. The plate was washed five times with PBST. 100 μL/well of colorimetric substrate TMB was added and incubated at room temperature for 10 minutes. Color development was terminated by adding 100 μL/well of 1 M H₂SO₄. The absorbance at 450 nm was read on a microplate reader.

In experiment [2] the target is T4, recombinant human IL-17A. Description: ELISA, recombinant human IL-17A coated on the plate, HRP anti-human IgG, OD450nm. As to the method: as §3
Another experiment concerns the target T6, recombinant mouse IL-17A (mouse, UniProt Q62386 26-158, limits assumed).
T6 sequence (looked up): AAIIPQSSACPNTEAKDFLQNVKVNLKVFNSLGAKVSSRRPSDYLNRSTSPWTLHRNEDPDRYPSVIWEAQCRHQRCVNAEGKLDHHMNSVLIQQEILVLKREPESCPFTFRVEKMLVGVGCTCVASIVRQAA
The experiment in a line: ELISA, recombinant mouse IL-17A coated on the plate, HRP anti-human IgG, OD450nm. As to the method: as §3

Experiment [3] deals with recombinant monkey IL-17A (monkey). The experiment in a line: ELISA, recombinant monkey IL-17A coated on the plate, HRP anti-human IgG, OD450nm. As to the method: as §3

The term Kd denotes a measure of binding affinity in units of concentration. By koff is commonly meant the first-order rate constant of dissociation. A word on the kon: it is the second-order rate constant of association. The term EC50 denotes the concentration giving half of the maximal effect.

B1: anti-human IL-17A chimeric monoclonal antibody (antibody, human IgG1, kappa, V domains shown)
VH: DVQVQESGPGLVKPSQSLSLTCTVTGNSITSYYAWNWIRQFPGNKLEWMGYITYSGTTSYNPSLKSRISITRDTSKNQFFLQLNSVTTEDTATYYCAREEYDDIYAVDYWGQGTSVTVSS
VL: IIVMTQTPLSLPVSLGDQASISCRSSQSLVHSNGNTYLHWYLQKPGQSPKLLIYKVYNRFSGVPDRFSGSGSGTDFTLKISRVEAEDLGVYFCSQSTHFPTFGGGTKLEIKR
notes: expressed in 293F cells; also called Anti-human IL-17A Chimeric Antibody; chimeric anti-human IL-17A monoclonal antibody
For B1, the binding result is listed as “no binding” with recombinant human IL-17B; “no binding” in the experiment with recombinant human IL-17D; “no binding” with recombinant human IFN-g; “no binding (tested: about 20 nM)” with recombinant rat IL-17A; “no binding (tested: about 20 nM)” with recombinant mouse IL-17A. Also, in the experiment with recombinant human IL-17A [1], the Kd amounted to 0.03 nM. Moreover, the koff with recombinant human IL-17A [1] was determined as 1.49e-06 s⁻¹. Moreover, in the experiment with recombinant human IL-17A [1], the kon amounted to 54100 M⁻¹ s⁻¹. The EC50 in the experiment with recombinant human IL-17A [2] turned out to be 0.07 nM; in experiment [3], 0.09 nM.

The values above are taken from patent US20190256588A1 (BEIJING HANMI PHARM, published 2019).
